Measurements published in patent publication US8349579B2, “Galectin-3 cleavage as a marker for matrix metalloproteinase activity in cancer” (Wayne State University, priority 2007, dated 2013).

Experiments:
[1] = test system: gelatinolytic activity (MMP) in MCF10 DCIS.com xenograft sections; settings: DQ gelatin, incubated with EDTA (2 mM in method, 20 mM in FIG. 5 legend)
Experimental: In situ zymography was performed on the fresh frozen DCIS xenografts as described by Mook et. al. (29). In brief, 8 micron thick cryosections were air dried, rehydrated with PBS for 5 min and overlaid with a solution of 50 μg/ml fluorescein-labeled gelatin (DQ gelatin; Molecular Probes, Eugene, Oreg.), 1% w/v low melting temperature agarose (BioWhittaker Molecular Applications, Rockland, Me.) and 5 μg/ml DAPI (Molecular Probes) in PBS in the presence or absence of 2 mM EDTA and incubated on ice for 15 min followed by incubation in a humidified chamber at 37° C. for 2 hr. Protease catalyzed hydrolysis of the heavily labeled and totally quenched DQ Gelatin relieved the intra-molecular self quenching, yielding brightly fluorescent peptide, which was visualized by using imaging microscope.

MMP-2 = molecular target: T1, MMP-2 (Homo sapiens, UniProt P08253); test: Cleavage of recombinant galectin-3 proteins by activated MMP-2 (Western blot); format: biochemical; settings: purified active MMP-2, 15 min, 37° C.
T1 sequence (P08253 110-660): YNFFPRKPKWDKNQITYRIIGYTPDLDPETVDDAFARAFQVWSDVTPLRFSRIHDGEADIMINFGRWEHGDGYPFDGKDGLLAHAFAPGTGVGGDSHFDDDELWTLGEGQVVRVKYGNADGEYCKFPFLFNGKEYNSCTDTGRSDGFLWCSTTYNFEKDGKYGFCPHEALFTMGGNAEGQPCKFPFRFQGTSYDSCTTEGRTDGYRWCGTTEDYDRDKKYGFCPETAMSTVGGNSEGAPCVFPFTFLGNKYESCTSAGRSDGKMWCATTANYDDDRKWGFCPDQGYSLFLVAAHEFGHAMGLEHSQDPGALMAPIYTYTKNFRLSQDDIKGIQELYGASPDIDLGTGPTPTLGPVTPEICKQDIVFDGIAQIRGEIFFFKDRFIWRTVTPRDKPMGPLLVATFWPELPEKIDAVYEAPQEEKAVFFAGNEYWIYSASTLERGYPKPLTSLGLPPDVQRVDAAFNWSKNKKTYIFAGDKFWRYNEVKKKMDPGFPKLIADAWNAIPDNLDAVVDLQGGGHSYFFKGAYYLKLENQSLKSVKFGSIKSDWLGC

MMP-9 = MMP-9 (Homo sapiens, UniProt P14780); test: Cleavage of recombinant galectin-3 proteins by activated MMP-9 (Western blot); format: biochemical; settings: purified active MMP-9, 60 min, 37° C.
MDA-MB-435 tumors = settings: mice bearing MDA-MB-435 tumors, injection; cited from earlier work

Sequence of MMP-9 (P14780 107-707 limits assumed): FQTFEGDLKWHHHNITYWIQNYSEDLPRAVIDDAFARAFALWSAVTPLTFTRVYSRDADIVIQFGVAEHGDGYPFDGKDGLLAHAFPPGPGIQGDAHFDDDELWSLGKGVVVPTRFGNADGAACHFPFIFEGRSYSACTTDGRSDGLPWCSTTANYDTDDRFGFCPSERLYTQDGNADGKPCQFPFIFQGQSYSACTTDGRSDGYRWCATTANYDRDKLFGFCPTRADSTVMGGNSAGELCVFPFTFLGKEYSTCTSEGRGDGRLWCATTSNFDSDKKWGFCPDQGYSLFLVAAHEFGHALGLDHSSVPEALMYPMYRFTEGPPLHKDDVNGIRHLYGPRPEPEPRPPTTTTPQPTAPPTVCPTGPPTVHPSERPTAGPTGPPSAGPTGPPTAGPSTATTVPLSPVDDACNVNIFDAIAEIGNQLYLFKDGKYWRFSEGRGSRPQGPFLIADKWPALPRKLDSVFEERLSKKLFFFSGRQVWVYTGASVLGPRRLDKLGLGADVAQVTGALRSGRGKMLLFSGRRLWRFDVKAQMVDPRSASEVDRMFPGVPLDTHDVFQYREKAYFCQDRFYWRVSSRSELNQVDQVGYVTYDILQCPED

| Compound | gelatinolytic activity in the stroma [1] | polypeptide produced upon incubation with MMP-2 (MMP-2) [kDa] | polypeptide produced upon incubation with MMP-9 (MMP-9) [kDa] | tumor growth and metastasis (MDA-MB-435 tumors) |
| --- | --- | --- | --- | --- |
| O=C(O)CN(CCN(CC(=O)O)CC(=O)O)CC(=O)O [EDTA] | abrogated | – | – | – |
| A33G: recombinant galectin-3 mutant with A33G substitution | – | ~22 | ~22 | – |
| Wild type galectin-3: recombinant human wild type galectin-3, isolated from a GST fusion protein | – | ~22 | ~22 | – |
| cleaved galectin-3 peptide containing 108-250 amino acids: cleaved galectin-3 peptide containing 108-250 amino acids, from the literature (ref. 37) | – | – | – | loss of tumor growth and metastasis |
